# Experimental data taken from patent US20240262879.
# Assays:
# [1] = tested on: Control (peptide of Table 12)
# [2] = tested on: Peptide 10
# [3] = tested on: Peptide 5 (GPLGVRG)
# [4] = tested on: Peptide 8
# [5] = tested on: BI-050
# [6] = tested on: BI-051
# [7] = tested on: BI-052
# [8] = tested on: BI-054
# [9] = tested on: BI-055
# [10] = tested on: BI-059
# Sequence of BI-059 (chain, as listed by the source, chain 1 of 2): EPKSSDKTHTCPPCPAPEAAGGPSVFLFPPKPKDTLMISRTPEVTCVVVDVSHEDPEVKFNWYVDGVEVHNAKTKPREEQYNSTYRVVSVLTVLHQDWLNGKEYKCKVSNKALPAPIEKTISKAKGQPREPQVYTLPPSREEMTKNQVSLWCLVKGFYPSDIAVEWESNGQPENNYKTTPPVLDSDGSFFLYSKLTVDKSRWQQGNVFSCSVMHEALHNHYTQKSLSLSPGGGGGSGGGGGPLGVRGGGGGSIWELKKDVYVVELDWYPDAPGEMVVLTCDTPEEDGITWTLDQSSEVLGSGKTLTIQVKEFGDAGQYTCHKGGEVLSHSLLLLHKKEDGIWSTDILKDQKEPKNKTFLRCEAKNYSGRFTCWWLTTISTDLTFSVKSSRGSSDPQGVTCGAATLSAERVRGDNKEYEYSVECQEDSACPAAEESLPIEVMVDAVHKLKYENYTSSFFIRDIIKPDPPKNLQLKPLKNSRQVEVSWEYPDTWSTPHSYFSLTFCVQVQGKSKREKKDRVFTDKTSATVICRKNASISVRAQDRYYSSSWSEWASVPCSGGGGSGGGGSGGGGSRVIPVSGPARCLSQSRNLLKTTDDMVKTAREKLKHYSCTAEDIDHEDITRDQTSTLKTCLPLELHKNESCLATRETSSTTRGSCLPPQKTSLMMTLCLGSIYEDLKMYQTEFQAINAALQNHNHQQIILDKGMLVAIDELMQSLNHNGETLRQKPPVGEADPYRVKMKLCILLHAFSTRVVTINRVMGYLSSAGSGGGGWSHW
# Sequence of BI-059 (chain, as listed by the source, chain 2 of 2): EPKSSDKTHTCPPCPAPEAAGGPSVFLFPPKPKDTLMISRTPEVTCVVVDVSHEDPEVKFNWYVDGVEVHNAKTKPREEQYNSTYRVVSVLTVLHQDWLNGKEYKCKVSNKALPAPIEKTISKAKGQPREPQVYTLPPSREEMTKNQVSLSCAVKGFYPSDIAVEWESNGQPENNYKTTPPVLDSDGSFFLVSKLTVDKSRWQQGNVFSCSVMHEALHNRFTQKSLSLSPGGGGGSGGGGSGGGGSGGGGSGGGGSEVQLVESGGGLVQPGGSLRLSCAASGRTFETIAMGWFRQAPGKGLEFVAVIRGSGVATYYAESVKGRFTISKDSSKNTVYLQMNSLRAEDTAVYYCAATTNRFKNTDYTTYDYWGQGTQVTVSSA
# Sequence of rhMMP3 (chain, as listed by the source): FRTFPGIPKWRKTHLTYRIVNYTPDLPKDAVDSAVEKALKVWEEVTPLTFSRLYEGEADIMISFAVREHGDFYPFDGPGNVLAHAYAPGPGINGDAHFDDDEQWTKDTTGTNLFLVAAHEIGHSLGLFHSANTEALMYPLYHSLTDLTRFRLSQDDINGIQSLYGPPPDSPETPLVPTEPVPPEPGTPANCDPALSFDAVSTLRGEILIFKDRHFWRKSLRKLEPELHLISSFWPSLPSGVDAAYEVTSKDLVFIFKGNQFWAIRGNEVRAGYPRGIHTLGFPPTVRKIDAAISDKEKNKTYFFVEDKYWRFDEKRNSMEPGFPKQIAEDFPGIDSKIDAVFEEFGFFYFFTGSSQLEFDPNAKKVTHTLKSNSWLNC
# Sequence of rmMMP2 (chain, as listed by the source): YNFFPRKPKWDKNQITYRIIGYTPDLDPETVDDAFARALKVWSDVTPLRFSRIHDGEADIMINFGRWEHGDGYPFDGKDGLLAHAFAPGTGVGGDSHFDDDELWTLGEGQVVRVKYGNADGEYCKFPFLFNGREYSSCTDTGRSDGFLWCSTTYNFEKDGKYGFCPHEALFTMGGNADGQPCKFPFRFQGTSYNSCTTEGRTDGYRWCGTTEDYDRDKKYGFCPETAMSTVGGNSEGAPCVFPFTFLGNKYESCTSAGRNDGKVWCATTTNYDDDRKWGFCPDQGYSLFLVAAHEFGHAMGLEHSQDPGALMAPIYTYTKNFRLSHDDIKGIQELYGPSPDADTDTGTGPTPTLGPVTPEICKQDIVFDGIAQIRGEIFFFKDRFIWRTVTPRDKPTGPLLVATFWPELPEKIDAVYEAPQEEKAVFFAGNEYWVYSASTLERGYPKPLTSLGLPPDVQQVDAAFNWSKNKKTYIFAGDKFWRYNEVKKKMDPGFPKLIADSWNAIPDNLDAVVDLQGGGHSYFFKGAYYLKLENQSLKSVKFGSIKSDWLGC
# Sequence of rhMMP9 (chain, as listed by the source): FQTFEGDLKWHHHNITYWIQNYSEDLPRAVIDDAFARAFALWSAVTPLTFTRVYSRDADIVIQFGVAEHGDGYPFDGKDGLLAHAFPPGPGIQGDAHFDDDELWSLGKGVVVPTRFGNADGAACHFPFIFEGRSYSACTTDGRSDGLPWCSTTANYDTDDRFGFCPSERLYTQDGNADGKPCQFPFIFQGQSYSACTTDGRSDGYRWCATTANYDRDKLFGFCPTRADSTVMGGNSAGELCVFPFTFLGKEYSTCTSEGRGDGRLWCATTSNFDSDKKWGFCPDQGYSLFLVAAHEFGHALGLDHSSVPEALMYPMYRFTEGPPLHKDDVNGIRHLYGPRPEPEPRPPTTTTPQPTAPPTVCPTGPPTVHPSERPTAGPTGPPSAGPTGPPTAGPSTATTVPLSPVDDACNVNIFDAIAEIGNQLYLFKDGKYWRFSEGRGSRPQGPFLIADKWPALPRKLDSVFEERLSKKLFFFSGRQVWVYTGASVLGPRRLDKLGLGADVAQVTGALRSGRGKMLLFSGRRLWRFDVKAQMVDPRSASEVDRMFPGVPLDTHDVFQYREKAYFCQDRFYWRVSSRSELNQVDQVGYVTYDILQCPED
# Sequence of BI-055 (chain, as listed by the source, chain 1 of 2): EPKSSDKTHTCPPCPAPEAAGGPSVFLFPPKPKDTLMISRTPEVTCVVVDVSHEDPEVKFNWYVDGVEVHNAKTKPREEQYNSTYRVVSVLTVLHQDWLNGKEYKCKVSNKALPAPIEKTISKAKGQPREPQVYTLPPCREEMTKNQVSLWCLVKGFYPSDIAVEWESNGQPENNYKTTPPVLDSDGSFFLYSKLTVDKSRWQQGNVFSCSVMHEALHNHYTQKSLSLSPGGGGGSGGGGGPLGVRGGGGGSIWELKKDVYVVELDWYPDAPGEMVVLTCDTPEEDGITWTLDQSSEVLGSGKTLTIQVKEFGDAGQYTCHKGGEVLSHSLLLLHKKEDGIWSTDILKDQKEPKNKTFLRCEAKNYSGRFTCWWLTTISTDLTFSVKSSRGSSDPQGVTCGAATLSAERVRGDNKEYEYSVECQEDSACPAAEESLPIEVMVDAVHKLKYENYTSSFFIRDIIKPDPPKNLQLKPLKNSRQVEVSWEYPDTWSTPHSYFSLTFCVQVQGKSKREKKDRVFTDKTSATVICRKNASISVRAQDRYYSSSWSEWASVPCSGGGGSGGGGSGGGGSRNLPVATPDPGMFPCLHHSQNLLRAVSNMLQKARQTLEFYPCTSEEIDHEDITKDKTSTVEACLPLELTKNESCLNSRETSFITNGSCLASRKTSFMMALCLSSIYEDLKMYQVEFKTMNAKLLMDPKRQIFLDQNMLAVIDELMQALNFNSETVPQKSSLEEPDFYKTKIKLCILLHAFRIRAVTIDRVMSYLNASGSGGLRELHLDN
# Sequence of BI-055 (chain, as listed by the source, chain 2 of 2): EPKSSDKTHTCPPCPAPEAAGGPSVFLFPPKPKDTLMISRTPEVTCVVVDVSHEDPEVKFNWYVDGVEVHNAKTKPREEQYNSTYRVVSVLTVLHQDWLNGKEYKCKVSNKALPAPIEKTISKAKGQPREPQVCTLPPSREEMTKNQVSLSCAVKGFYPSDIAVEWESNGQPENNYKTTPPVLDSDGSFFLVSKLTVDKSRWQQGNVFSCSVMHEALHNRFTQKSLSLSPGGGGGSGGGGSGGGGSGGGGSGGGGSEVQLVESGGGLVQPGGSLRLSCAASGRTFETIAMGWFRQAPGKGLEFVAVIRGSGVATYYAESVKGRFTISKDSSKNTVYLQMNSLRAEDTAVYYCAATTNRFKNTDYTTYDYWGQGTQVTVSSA
# Sequence of BI-051 (chain, as listed by the source, chain 1 of 2): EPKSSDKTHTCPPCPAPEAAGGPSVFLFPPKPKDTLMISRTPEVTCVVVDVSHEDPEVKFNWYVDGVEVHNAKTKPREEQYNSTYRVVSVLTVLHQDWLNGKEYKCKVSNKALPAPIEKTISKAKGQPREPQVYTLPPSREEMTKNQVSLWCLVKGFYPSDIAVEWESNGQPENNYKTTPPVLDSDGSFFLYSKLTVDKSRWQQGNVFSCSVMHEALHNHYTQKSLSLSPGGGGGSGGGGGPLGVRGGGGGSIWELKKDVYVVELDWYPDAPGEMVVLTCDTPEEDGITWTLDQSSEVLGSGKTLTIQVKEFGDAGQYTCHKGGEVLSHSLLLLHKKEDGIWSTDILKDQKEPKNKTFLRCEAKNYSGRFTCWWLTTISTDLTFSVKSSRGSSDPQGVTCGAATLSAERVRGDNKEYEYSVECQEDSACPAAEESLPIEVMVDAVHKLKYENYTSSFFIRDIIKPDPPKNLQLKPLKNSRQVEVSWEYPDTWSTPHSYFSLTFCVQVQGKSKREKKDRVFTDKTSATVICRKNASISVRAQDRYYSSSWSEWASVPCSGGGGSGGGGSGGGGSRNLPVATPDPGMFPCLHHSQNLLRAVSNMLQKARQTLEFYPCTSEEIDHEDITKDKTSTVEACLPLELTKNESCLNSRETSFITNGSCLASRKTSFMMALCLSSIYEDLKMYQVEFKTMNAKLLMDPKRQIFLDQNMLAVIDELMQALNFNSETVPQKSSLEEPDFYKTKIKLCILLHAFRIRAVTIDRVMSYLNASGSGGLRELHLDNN
# Sequence of BI-054 (chain, as listed by the source, chain 2 of 2): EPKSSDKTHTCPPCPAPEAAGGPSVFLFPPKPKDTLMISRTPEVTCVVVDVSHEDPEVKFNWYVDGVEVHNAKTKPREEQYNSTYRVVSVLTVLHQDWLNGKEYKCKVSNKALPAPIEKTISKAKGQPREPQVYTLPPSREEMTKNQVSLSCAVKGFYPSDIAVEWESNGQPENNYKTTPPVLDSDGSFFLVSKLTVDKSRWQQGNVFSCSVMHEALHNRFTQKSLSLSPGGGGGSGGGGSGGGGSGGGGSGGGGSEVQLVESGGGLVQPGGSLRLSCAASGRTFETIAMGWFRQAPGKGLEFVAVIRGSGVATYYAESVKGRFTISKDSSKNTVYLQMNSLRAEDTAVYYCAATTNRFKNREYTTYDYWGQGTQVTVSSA
Substance,Specific Activity [1],Specific Activity [2],Specific Activity [3],Specific Activity [4],cleavage shown by SDS-PAGE [5],cleavage shown by SDS-PAGE [6],cleavage shown by SDS-PAGE [7],cleavage shown by SDS-PAGE [8],cleavage shown by SDS-PAGE [9],cleavage by Western blot [10]
rhMMP3,10 pmol/min/µg,18.3 pmol/min/µg,14.2 pmol/min/µg,51.2 pmol/min/µg,,,,,,
rhMMP9,10 pmol/min/µg,63.6 pmol/min/µg,200 pmol/min/µg,123 pmol/min/µg,efficiently cleaved,efficiently cleaved,efficiently cleaved,efficiently cleaved,efficiently cleaved,efficiently cleaved with the human tumor lysates to the level comparable to activated MMP9
rmMMP2,10 pmol/min/µg,98.9 pmol/min/µg,165 pmol/min/µg,233 pmol/min/µg,,,,,,
